Laboratory results as given in article PMC12431671, “Receptor transporter protein 4 (RTP4)-mediated repression of hepatitis C virus replication in mouse cells” (PLOS Pathogens, 2025).

Target: T1, HCV NS5A protein (hepatitis C virus J6/JFH1-Jc1, UniProt Q99IB8 1977-2442)
T1 construct: NS5A, cut product of the polyprotein of hepatitis C virus J6/JFH1 (Jc1) chimeric genome; Untagged viral protein, detected with the mouse anti-NS5A antibody 9E10 (a tool); NS5A is a stretch of it; source: made by HCV J6/JFH1-Jc1 infection (MOI of 1) of Huh7-Lunet cells, in fixed cells
T1 sequence: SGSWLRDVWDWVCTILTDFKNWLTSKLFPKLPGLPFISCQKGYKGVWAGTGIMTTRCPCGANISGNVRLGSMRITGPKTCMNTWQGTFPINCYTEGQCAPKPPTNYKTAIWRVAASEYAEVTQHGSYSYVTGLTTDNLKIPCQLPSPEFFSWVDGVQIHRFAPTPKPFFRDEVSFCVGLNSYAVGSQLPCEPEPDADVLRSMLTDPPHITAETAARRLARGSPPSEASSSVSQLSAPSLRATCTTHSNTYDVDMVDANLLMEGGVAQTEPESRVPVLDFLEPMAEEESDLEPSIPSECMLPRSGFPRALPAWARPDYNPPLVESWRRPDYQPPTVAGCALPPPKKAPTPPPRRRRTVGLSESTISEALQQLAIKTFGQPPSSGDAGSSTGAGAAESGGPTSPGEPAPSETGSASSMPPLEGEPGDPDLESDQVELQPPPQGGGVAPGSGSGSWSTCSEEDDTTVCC
Test: proximity ligation; in situ PLA (Duolink In Situ Detection Reagents Green) in Huh7-Lunet cells infected with HCV J6/JFH1-Jc1 at MOI 1, transduced with FLAG-mmRTP4 or FLAG-hsRTP4 lentivirus, fixed in methanol 48 h post-transduction; Anti-Rabbit MINUS and Anti-Mouse PLUS probes; foci counted in 10 images per sample
Conditions: partners not purified

B1: FLAG-tagged murine receptor transporter protein 4 (FLAG-mmRTP4) (natural protein)
chain: MLFPDDFSTWEQTFQELMQEEKPGAKWSLHLDKNIVPDGAALGWRQHQQTVLGRFQCSRCCRSWTSAQVMILCHMYPDTLKSQGQARMRIFGQKCQKCFGCQFETPKFSTEIIKRILNNLVNYILQRYYGHRKIALTSNASLGEKVTLDGPHDTRNCEACSLNSHGRCALAHKVKPPRSPSPLPKSSSPSKSCPPPPQTRNTDFGNKTFQDFGNRTFQGCREPPQREIEPPLFLFLSIAAFALFSLFTR
notes: Receptor transporter protein 4 (RTP4), mouse; also called mouse RTP4; murine RTP4; source: Huh7-Lunet cells, lentivirally transduced (pLVX), HCV-infected, in fixed cells; not shown: FLAG, N-terminal, kept
In the case of B1, the “frequency of PLA foci relative to FLAG-hsRTP4 with NS5A” value is reported as 2 fold.
